Assay results reported in the supplement of paper PMC7877785.
± gives the uncertainty stated by the source.

Experiment: self-splicing fitness, log relative to wild type (ln ratio); higher = more splicing; Tetrahymena group I intron in knt gene, E. coli kanamycin selection, DiMSum; sequences stand for … in CUCUCU…GGAGGGAAAAGUUAUCAGGCAUGCACCUGGUAGCUAGUCUUUAAACCAAUAGAUUGCAUCGGUUUAAAAGGCAAGACCGUCAAAUUGCGGGAAAGGGGUCAACAGCCGUUCAGUACCAAGUCUCAGGGGAAACUUUGAGAUGGCCUUGCAAAGGGUAUGGUAAUAAGCUGACGGACAUGGUCCUAACCACGCAGCCAAGUCCUAAGUCAACAGAUCUUCUGUUGAUAUGGAUGCAGUUCACAGACUAAAUGUCGGUCGGGGAAGAUGUAUUCUUCUCAUAAGAUAUAGUCGGACCUCUCCUUAAUGGGAGCUAGCGGAUGAAGUGAUGCAACACUGGAGCCGCUGGGAACUAAUUUGUAUGCGAAAGUAUAUUGAUUAGUUUUGGAGUACUCGUGGUCG
Outline: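 Fitness was computed with DiMSum as the error-weighted combination of replicate fold changes, kanamycin versus none, each normalised to wild type. The library randomised all eight intron nucleotides of the P1ex region, with the intron placed in the knt kanamycin-resistance gene on pET-22b(+) in E. coli BL21(DE3). Six replicate transformations were grown overnight at 37°C or 30°C on LB agar with or without 25 μg/mL kanamycin, plus 100 μg/mL carbenicillin, 50 μM IPTG and 0.2% rhamnose. Pooled colonies were amplicon-sequenced on an Illumina HiSeq 2500.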

| Sequence | self-splicing fitness (ln) (37 °C) | self-splicing fitness (ln) (30 °C) |
| --- | --- | --- |
| GUGGAGCAAUAUUACGUGAC | 1.74 ± 0.35 | – |
| GUGGAGCAAUAUUACGUGGU | -2.51 ± 0.28 | -2.9 ± 0.27 |
| GUGGAGCAAUAUUACGUUCA | -0.668 ± 0.11 | -1.02 ± 0.11 |
| GUGUAGCAAUAUUACGAAGA | -1.38 ± 0.39 | – |
| GUGUAGCAAUAUUACGAAGU | -1.67 ± 0.25 | -2.86 ± 0.34 |
| GUGUAGCAAUAUUACGACUA | 0.0605 ± 0.12 | -0.34 ± 0.11 |
| GUGUAGCAAUAUUACGAGAC | -2.4 ± 0.16 | -3.58 ± 0.42 |
| GUGUAGCAAUAUUACGAGGU | -1.61 ± 0.49 | -2.33 ± 0.44 |
| GUGUAGCAAUAUUACGAUCG | 0.634 ± 0.17 | -1.94 ± 0.22 |
| GUGUAGCAAUAUUACGAUUU | 0.0419 ± 0.25 | -1.98 ± 0.19 |
| GUGUAGCAAUAUUACGCAGG | -2.3 ± 0.32 | – |
| GUGUAGCAAUAUUACGCCAU | -1.51 ± 0.22 | -3.15 ± 0.29 |
| GUGUAGCAAUAUUACGCCUG | -0.863 ± 0.13 | -3.94 ± 0.25 |
| GUGUAGCAAUAUUACGCCUU | -2.56 ± 0.37 | -2.63 ± 0.39 |
| GUGUAGCAAUAUUACGCGAU | -1.96 ± 0.26 | -3.21 ± 0.26 |
| GUGUAGCAAUAUUACGCGCU | -1.27 ± 0.18 | – |
| GUGUAGCAAUAUUACGCGGU | -0.66 ± 0.41 | -2.85 ± 0.34 |
| GUGUAGCAAUAUUACGCUCA | 0.47 ± 0.33 | -0.291 ± 0.21 |
| GUGUAGCAAUAUUACGCUGU | -3.45 ± 0.39 | -2.96 ± 0.2 |
| GUGUAGCAAUAUUACGCUUA | 0.408 ± 0.25 | -1.45 ± 0.29 |
| GUGUAGCAAUAUUACGGGAG | -2.88 ± 0.18 | -3.55 ± 0.2 |
| GUGUAGCAAUAUUACGGGGA | -2.41 ± 0.25 | -1.9 ± 0.28 |
| GUGUAGCAAUAUUACGGGUG | -1.13 ± 0.13 | -2.72 ± 0.14 |
| GUGUAGCAAUAUUACGGUAC | -1.43 ± 0.25 | -2.1 ± 0.22 |
| GUGUAGCAAUAUUACGGUUC | -0.373 ± 0.16 | -1.04 ± 0.13 |
| GUGUAGCAAUAUUACGUAUG | -2.78 ± 0.27 | -3.21 ± 0.23 |
| GUGUAGCAAUAUUACGUCGC | – | -2.48 ± 0.26 |

| Sequence | self-splicing fitness (ln) (37 °C) | self-splicing fitness (ln) (30 °C) |
| --- | --- | --- |
| GUGUAGCAAUAUUACGUCUU | -0.00398 ± 0.18 | 0.202 ± 0.18 |
| GUGUAGCAAUAUUACGUUUA | -2.01 ± 0.15 | -2.51 ± 0.23 |
| GUUAAGCAAUAUUACGAAAA | -2.1 ± 0.24 | -1.13 ± 0.27 |
| GUUAAGCAAUAUUACGAGGU | -2.51 ± 0.34 | – |
| GUUAAGCAAUAUUACGAGUG | -1.84 ± 0.16 | -2.69 ± 0.14 |
| GUUAAGCAAUAUUACGAUGG | -1.77 ± 0.23 | – |
| GUUAAGCAAUAUUACGCAGU | -2.55 ± 0.23 | -1.74 ± 0.24 |
| GUUAAGCAAUAUUACGCCAG | -2.75 ± 0.28 | -3.1 ± 0.23 |
| GUUAAGCAAUAUUACGCCUA | -0.139 ± 0.11 | -0.752 ± 0.11 |
| GUUAAGCAAUAUUACGCGGU | -2.65 ± 0.2 | -3.3 ± 0.22 |
| GUUAAGCAAUAUUACGCGUG | -0.78 ± 0.099 | -0.781 ± 0.1 |
| GUUAAGCAAUAUUACGCUAA | -1.54 ± 0.15 | -2.35 ± 0.14 |
| GUUAAGCAAUAUUACGGCAA | -0.394 ± 0.22 | 0.045 ± 0.2 |
| GUUAAGCAAUAUUACGGCUC | -0.6 ± 0.21 | 0.46 ± 0.2 |
| GUUAAGCAAUAUUACGGGAG | -1.63 ± 0.097 | -3.17 ± 0.14 |
| GUUAAGCAAUAUUACGGUUU | -1.5 ± 0.12 | -0.85 ± 0.094 |
| GUUAAGCAAUAUUACGUAGC | -1.86 ± 0.26 | -2.84 ± 0.19 |
| GUUAAGCAAUAUUACGUAGU | -0.895 ± 0.14 | -2.06 ± 0.16 |
| GUUAAGCAAUAUUACGUCAU | -0.179 ± 0.12 | -1.5 ± 0.1 |
| GUUAAGCAAUAUUACGUGUA | -0.751 ± 0.091 | -2.09 ± 0.098 |
| GUUAAGCAAUAUUACGUUAG | -1.32 ± 0.14 | -2.47 ± 0.13 |
| GUUCAGCAAUAUUACGAAAC | -0.734 ± 0.22 | -1.48 ± 0.23 |
| GUUCAGCAAUAUUACGAAGA | 0.147 ± 0.1 | -0.456 ± 0.086 |
| GUUCAGCAAUAUUACGAAGG | -0.421 ± 0.23 | -1.55 ± 0.2 |
| GUUCAGCAAUAUUACGAGCG | -1.31 ± 0.15 | -2.03 ± 0.13 |
| GUUCAGCAAUAUUACGAGCU | -3.72 ± 0.39 | -3.34 ± 0.32 |
| GUUCAGCAAUAUUACGAGGA | -2.18 ± 0.26 | -3.54 ± 0.27 |

| Sequence | self-splicing fitness (ln) (37 °C) | self-splicing fitness (ln) (30 °C) |
| --- | --- | --- |
| GUUCAGCAAUAUUACGAUCC | -1.05 ± 0.14 | -1.37 ± 0.12 |
| GUUCAGCAAUAUUACGCAAG | -0.654 ± 0.12 | -0.984 ± 0.093 |
| GUUCAGCAAUAUUACGCAUU | 0.414 ± 0.078 | -0.22 ± 0.06 |
| GUUCAGCAAUAUUACGCGGC | -2.94 ± 0.43 | – |
| GUUCAGCAAUAUUACGGACC | -2.8 ± 0.38 | – |
| GUUCAGCAAUAUUACGGUCG | -0.788 ± 0.15 | -0.812 ± 0.099 |
| GUUCAGCAAUAUUACGUAUC | -0.756 ± 0.1 | -0.532 ± 0.089 |
| GUUCAGCAAUAUUACGUCCG | – | 0.0188 ± 0.43 |
| GUUCAGCAAUAUUACGUCGA | -0.398 ± 0.13 | -0.842 ± 0.15 |
| GUUCAGCAAUAUUACGUGAU | 0.43 ± 0.068 | -0.367 ± 0.049 |
| GUUCAGCAAUAUUACGUGGC | -2.25 ± 0.16 | -2.08 ± 0.1 |
| GUUCAGCAAUAUUACGUGUU | 0.0147 ± 0.089 | -1.84 ± 0.08 |
| GUUGAGCAAUAUUACGAACU | -1.61 ± 0.27 | – |
| GUUGAGCAAUAUUACGACCC | -0.607 ± 0.49 | – |
| GUUGAGCAAUAUUACGACGG | -1.12 ± 0.28 | -3.52 ± 0.3 |
| GUUGAGCAAUAUUACGAGUC | -0.0995 ± 0.16 | -3.09 ± 0.28 |
| GUUGAGCAAUAUUACGAGUG | -3.28 ± 0.28 | -2.98 ± 0.19 |
| GUUGAGCAAUAUUACGAUUC | 0.00124 ± 0.2 | -0.993 ± 0.12 |
| GUUGAGCAAUAUUACGCCCU | 0.108 ± 0.25 | -1 ± 0.19 |
| GUUGAGCAAUAUUACGCCUU | -1.78 ± 0.36 | -2.32 ± 0.28 |
| GUUGAGCAAUAUUACGGACU | -3.49 ± 0.34 | -3.15 ± 0.24 |
| GUUGAGCAAUAUUACGGCAC | -0.486 ± 0.2 | -0.787 ± 0.17 |
| GUUGAGCAAUAUUACGGGCU | -2.23 ± 0.49 | -2.65 ± 0.26 |
| GUUGAGCAAUAUUACGGGGG | -2.34 ± 0.25 | -3.87 ± 0.31 |
| GUUGAGCAAUAUUACGGUAU | -1.71 ± 0.13 | -4.2 ± 0.23 |
